For assay [1], the target named is soluble recombinant human TCR alpha/beta (2XN9)-zipper protein (human). The assay can be described thus: ELISA, coated soluble human TCR(2XN9)-zipper.
The target in assay [2] is human TCR(2XN9)/CD3 expressed on CHO-K1 cells (human). The assay can be described thus: flow cytometry, CHO-K1 human TCR(2XN9)/CD3 cells.
The target in assay [3] is human TCR(2IAN)/CD3 expressed on HEK293H cells (human). The assay can be described thus: flow cytometry, HEK293H human TCR(2IAN)/CD3 cells. For orientation: A flow cytometer gives signals particle by particle.
The target of assay [4] is soluble recombinant human TCR alpha/beta (2XN9)-zipper protein (human). The assay can be described thus: BLI (Octet RED384), immobilized human sTCR(2XN9)-zipper, 1:1 model.
Assay [5] deals with EGFR and CEACAM5 co-expressed on LS174T and LoVo cells (UniProt P00533). The assay can be described thus: flow cytometry, LS174T cells.
The target is the same in assay [6]. The assay can be described thus: flow cytometry, LoVo cells.
For assay [7] the target is unchanged. The assay can be described thus: flow cytometry, LS174T cells; LS174T cells.
The target is the same in assay [8]. The assay can be described thus: cell-based or functional assay.

Positions count from the first letter of the chain named.

The term EC50 denotes the concentration needed to bring the measured effect to its halfway point. What is called kon is the second-order rate constant of association.

B1: T0170068G05 (VHH, not shown: small tags and cut ends)
VHH: VQLVEESGGGLVQPGGSLRLSCITSGETFKINIWGWYRQAPGKQRELVASLTIGGATNYADSVKGRFTISEDSAKNTVYLQMNSLKPEDTAVYFCNAKSRIYPYDYWGRGTQVTVSS
As to B1, the EC50 in assay [1] is 16 nM; in assay [2] it was 12 nM; in assay [3] it was above 100 nM. For the same molecule, the MCF at 1 µM in assay [3] turned out to be 31200 MCF.

B2: T0170055A02 (VHH, not shown: small tags and cut ends)
VHH: EVQLVESGGGLVQPGGSLRLSCAASGDVHKINILGWYRQAPAKEREMVAHITIGDATDYADSAKGRFTISRDEAKNMVYLQMNSLKPEDTAVYFCRAYSRIYPYNYWGQGTLVTVSS
On to B2, for which, in assay [4], the kon worked out at 49000 M⁻¹ s⁻¹. Also, the MCF at 1 µM in assay [3] was found to be 91200 MCF.

B3: T0170056G05 (VHH, not shown: small tags and cut ends)
VHH: B2 VHH with A23V, I33F, A42G, M47K, T52S, A56Q, A74S, Y98F, N105D
As to B3, in assay [4], the kon came to 50000 M⁻¹ s⁻¹. Besides, the MCF at 1 µM in assay [3] stood at 86500 MCF.

B4: T0170061G01 (VHH, not shown: small tags and cut ends)
VHH: EVQLVESGGGLVQPGGSLRLSCAASGEIGRINFYRWYRQAPGNQREVVATITIADKTDYADSAKGRFTISRDESRNMVYLQMSSLKPEDTAVYFCHAGSRLYPYDYWGQGTQVTVSS
Regarding B4, the results for the EC50 in assay [1], in assay [2] and in assay [3] were 52 nM, 31 nM and above 100 nM, respectively. The same molecule gave an MCF at 1 µM in assay [3] of 10000 MCF.

B5: T017000107 (protein)
chain: EVQLVESGGGLVQAGGSLRLSCAASGRTFSSYVMGWFRQATGKEREFVATIAWDSGSTYYADSVKGRFTISRDNAKNTVHLQMNSLKPEDTAVYYCAASYNVYYNNYYYPISRDEYDYWGQGTLVTVSSGGGGSGGGGSGGGGSGGGGSGGGGSGGGGSGGGGSEVQLVESGGGSVQAGGSLRLSCAASGDTYGSYWMGWFRQAPGKEREGVAAINRGGGYTVYADSVKGRFTISRDTAKNTVYLQMNSLRPDDTADYYCAASGVLGGLHEDWFNYWGQGTLVTVSSGGGGSGGGGSGGGGSGGGGSGGGGSGGGGSGGGGSEVQLVESGGGLVQPGGSLRLSCVASGDVHKINFLGWYRQAPGKEREKVAHISIGDQTDYADSAKGRFTISRDESKNMVYLQMNSLKPEDTAVYFCRAFSRIYPYDYWGQGTLVTVSSGAADYKDHDGDYKDHDIDYKDDDDKGAAHHHHHH
Take B5: in assay [5], the Top was found to be 64600. Also, in assay [6], the 50% effective concentration (EC50) worked out at 3.2 nM and the Top came to 88600. In addition, in assay [7], the EC50 came to 11 nM. In assay [8], this molecule registered an IC50, xCELLigence human T cell mediated killing of LS174T cells, E:T 15, 30-40 h of 10 nM; an IC50, xCELLigence human T cell mediated killing of LS174T cells, E:T 15, 50-60 h of 5.3 nM; an IC50, xCELLigence human T cell mediated killing of LoVo cells, E:T 15, 30-40 h of 0.3 nM; an IC50, xCELLigence human T cell mediated killing of LoVo cells, E:T 15, 50-60 h of 0.061 nM.

B6: T017000055 (bispecific antibody)
chain: EVQLVESGGGLVQPGGSLRLSCTFSGGTFSSYTMGWFRQAPGKEREFVAEVRWGGVTTYSNSLKDRFSISEDSVKNAVYLQMNSLKPEDTAVYYCAAVRQMYMTVVPDYWGQGTLVTVSSGGGGSGGGGSGGGGSGGGGSGGGGSGGGGSGGGGSEVQLVESGGGLVQPGGSLRLSCAASGDVHKINILGWYRQAPAKEREMVAHITIGDATDYADSAKGRFTISRDEAKNMVYLQMNSLKPEDTAVYFCRAYSRIYPYNYWGQGTLVTVSSGAADYKDHDGDYKDHDIDYKDDDDKGAAHHHHHH
In assay [2], B6 displayed an EC50 of 110 nM.

B7: T017000076 (bispecific antibody)
chain: B6 chain with A178V, I188F, A197G, M202K, T207S, A211Q, A229S, Y253F, N260D
As to B7, in assay [2], the EC50 was 78 nM.

B8: T017000068 (bispecific antibody)
chain: EVQLVESGGGLVQPGGSLRLSCTFSGGTFSSYTMGWFRQAPGKEREFVAEVRWGGVTTYSNSLKDRFSISEDSVKNAVYLQMNSLKPEDTAVYYCAAVRQMYMTVVPDYWGQGTLVTVSSGGGGSGGGGSGGGGSGGGGSGGGGSGGGGSGGGGSEVQLVESGGGLVQPGGSLRLSCITSGETFKINIWGWYRQAPGKQRELVASLTIGGATNYADSVKGRFTISEDSAKNTVYLQMNSLKPEDTAVYFCNAKSRLYPYDYWGQGTLVTVSSGAADYKDHDGDYKDHDIDYKDDDDKGAAHHHHHH
Consider B8, for which the EC50 in assay [2] came to 190 nM.

B9: T017000051 (bispecific antibody)
chain: EVQLVESGGGLVQPGGSLRLSCTFSGGTFSSYTMGWFRQAPGKEREFVAEVRWGGVTTYSNSLKDRFSISEDSVKNAVYLQMNSLKPEDTAVYYCAAVRQMYMTVVPDYWGQGTLVTVSSGGGGSGGGGSGGGGSGGGGSGGGGSGGGGSGGGGSEVQLVESGGGLVQPGGSLRLSCAASGEIGRINFYRWYRQAPGNQREVVATITIADKTDYADSAKGRFTISRDESRNMVYLQMSSLKPEDTAVYFCHAGSRLYPYDYWGQGTLVTVSSGAADYKDHDGDYKDHDIDYKDDDDKGAAHHHHHH
The molecule B9 gave a concentration giving a half-maximal response (EC50) in assay [2] of 460 nM.

B10: T017000042 (bispecific antibody)
chain: EVQLVESGGGLVQPGGSLRLSCAASGDVHKINILGWYRQAPAKEREMVAHITIGDATDYADSAKGRFTISRDEAKNMVYLQMNSLKPEDTAVYFCRAYSRIYPYNYWGQGTLVTVSSGGGGSGGGGSGGGGSGGGGSGGGGSGGGGSGGGGSEVQLVESGGGLVQPGGSLRLSCTFSGGTFSSYTMGWFRQAPGKEREFVAEVRWGGVTTYSNSLKDRFSISEDSVKNAVYLQMNSLKPEDTAVYYCAAVRQMYMTVVPDYWGQGTLVTVSSGAADYKDHDGDYKDHDIDYKDDDDKGAAHHHHHH
B10: the EC50 in assay [2] was determined as 17 nM.

B11: T017000074 (bispecific antibody)
chain: B10 chain with A23V, I33F, A42G, M47K, T52S, A56Q, A74S, Y98F, N105D
Take B11: in assay [2], the EC50 was 16 nM.

B12: T017000038 (bispecific antibody)
chain: EVQLVESGGGLVQPGGSLRLSCAASGEIGRINFYRWYRQAPGNQREVVATITIADKTDYADSAKGRFTISRDESRNMVYLQMSSLKPEDTAVYFCHAGSRLYPYDYWGQGTLVTVSSGGGGSGGGGSGGGGSGGGGSGGGGSGGGGSGGGGSEVQLVESGGGLVQPGGSLRLSCTFSGGTFSSYTMGWFRQAPGKEREFVAEVRWGGVTTYSNSLKDRFSISEDSVKNAVYLQMNSLKPEDTAVYYCAAVRQMYMTVVPDYWGQGTLVTVSSGAADYKDHDGDYKDHDIDYKDDDDKGAAHHHHHH
The molecule B12 had an EC50 in assay [2] of 17 nM.

B13: T017000031 (bispecific antibody)
chain: EVQLVESGGGLVQPGGSLRLSCITSGETFKINIWGWYRQAPGKQRELVASLTIGGATNYADSVKGRFTISEDSAKNTVYLQMNSLKPEDTAVYFCNAKSRLYPYDYWGQGTLVTVSSGGGGSGGGGSGGGGSGGGGSGGGGSGGGGSGGGGSEVQLVESGGGLVQPGGSLRLSCTFSGGTFSSYTMGWFRQAPGKEREFVAEVRWGGVTTYSNSLKDRFSISEDSVKNAVYLQMNSLKPEDTAVYYCAAVRQMYMTVVPDYWGQGTLVTVSSGAADYKDHDGDYKDHDIDYKDDDDKGAAHHHHHH
In assay [2], B13 yielded an EC50 of 20 nM.

For the origin of these results see patent publication US20190112392A1.
